Source: patent publication US8697369B2, “Method for screening a test substance for activating a receptor associated with FGF 21 activity” (National Institute of Advanced Industrial Science and …, priority 2007, dated 2014)

What was measured:
Type in all cases: binding
[1] = target: T1, FGF receptor subtype R1c (FGFR-Fc) (Homo sapiens, UniProt P11362); experiment: Co-precipitation of soluble betaKlotho with FGFR-Fc (protein A beads), R1c
T1 construct: adding an immunoglobulin Fc domain to the extracellular domain of an FGF receptor; purchased R&D Systems
T1 sequence (P11362 22-376 limits assumed): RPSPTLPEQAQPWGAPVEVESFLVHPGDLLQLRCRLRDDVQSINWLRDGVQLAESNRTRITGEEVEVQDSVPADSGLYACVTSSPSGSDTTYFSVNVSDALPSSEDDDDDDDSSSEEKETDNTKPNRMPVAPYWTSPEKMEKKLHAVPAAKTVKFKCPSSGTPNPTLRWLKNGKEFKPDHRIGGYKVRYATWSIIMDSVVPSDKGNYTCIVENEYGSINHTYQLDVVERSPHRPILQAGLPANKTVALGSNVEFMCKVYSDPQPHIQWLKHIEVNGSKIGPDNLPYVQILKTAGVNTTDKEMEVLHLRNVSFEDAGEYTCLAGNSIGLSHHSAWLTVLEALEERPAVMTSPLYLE
Protocol: (§1) Moreover, the soluble betaKlotho protein and a fusion protein obtained by adding an immunoglobulin Fc domain to the extracellular domain of an FGF receptor (FGFR-Fc; manufactured by R&D Systems) were incubated, and FGFR-Fc was then precipitated using protein A beads. Whether or not betaKlotho bound to FGFR-Fc and was co-precipitated therewith was analyzed.

[2] = target: T2, FGF receptor subtype R4 (FGFR-Fc) (Homo sapiens, UniProt P22455); experiment: Co-precipitation of soluble betaKlotho with FGFR-Fc (protein A beads), R4
T2 construct: adding an immunoglobulin Fc domain to the extracellular domain of an FGF receptor; purchased R&D Systems
T2 sequence (P22455 22-369 limits assumed): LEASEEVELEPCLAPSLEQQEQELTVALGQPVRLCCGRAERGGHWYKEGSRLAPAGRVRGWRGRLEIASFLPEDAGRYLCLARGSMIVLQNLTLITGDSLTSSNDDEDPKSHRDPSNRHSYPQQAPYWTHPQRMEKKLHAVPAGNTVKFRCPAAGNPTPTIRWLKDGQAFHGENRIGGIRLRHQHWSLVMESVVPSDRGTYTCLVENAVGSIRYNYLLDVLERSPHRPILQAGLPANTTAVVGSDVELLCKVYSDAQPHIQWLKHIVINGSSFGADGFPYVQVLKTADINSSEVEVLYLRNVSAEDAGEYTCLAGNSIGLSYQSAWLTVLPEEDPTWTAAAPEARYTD
Protocol: as §1

[3] = target: T3, FGF receptor subtype R3c (FGFR-Fc) (Homo sapiens, UniProt P22607); experiment: Co-precipitation of soluble betaKlotho with FGFR-Fc (protein A beads), R3c
T3 construct: adding an immunoglobulin Fc domain to the extracellular domain of an FGF receptor; purchased R&D Systems
T3 sequence (P22607 23-375 limits assumed): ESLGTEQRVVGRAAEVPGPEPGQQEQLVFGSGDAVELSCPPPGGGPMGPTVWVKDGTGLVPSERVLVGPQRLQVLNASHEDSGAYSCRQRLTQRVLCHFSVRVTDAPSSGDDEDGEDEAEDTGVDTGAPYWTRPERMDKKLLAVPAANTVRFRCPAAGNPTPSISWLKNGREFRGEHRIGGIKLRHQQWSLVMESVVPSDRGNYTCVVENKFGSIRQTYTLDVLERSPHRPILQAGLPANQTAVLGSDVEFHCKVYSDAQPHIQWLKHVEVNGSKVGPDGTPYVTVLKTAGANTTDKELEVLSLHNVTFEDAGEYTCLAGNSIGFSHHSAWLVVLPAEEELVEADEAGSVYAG
Protocol: as §1

[4] = target: T4, FGF receptor subtype R2c (FGFR-Fc) (Homo sapiens, UniProt P21802); experiment: Co-precipitation of soluble betaKlotho with FGFR-Fc (protein A beads), R2c
T4 construct: adding an immunoglobulin Fc domain to the extracellular domain of an FGF receptor; purchased R&D Systems
T4 sequence (P21802 22-377 limits assumed): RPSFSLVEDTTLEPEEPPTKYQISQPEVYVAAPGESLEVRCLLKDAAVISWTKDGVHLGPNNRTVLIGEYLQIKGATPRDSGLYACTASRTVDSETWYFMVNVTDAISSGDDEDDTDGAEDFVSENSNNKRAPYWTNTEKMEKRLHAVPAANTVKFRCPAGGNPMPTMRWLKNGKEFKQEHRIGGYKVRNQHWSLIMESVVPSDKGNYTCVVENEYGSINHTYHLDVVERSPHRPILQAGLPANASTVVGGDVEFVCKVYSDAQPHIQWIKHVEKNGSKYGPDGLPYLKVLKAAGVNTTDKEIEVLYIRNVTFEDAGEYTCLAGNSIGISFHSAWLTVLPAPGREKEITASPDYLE
Protocol: as §1

Measured: co-precipitation (binding) with FGFR-Fc

betaKlotho: soluble protein: extracellular domain of betaKlotho with V5 tag and His tag at the C-terminus
binds to all of FGF receptor subtypes: all assays above
